Results on 18 molecules are retold here after US20200164029A1 (ACCELERON PHARMA, published 2020).

The chains are these.
T1: human BMP-10 (human, UniProt O95393 317-424)
T1 construct: also called hBMP-10
T1 sequence (looked up): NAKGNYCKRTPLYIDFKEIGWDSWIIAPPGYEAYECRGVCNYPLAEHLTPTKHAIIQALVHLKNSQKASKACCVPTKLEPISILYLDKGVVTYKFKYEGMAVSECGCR

T2: human BMP-9 (human, UniProt Q9UK05 320-429)
T2 construct: also called hBMP-9
T2 sequence (looked up): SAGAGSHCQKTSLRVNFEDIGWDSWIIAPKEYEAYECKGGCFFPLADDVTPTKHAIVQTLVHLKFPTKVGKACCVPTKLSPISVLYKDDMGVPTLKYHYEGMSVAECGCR

T3: hENG(26-586) (R&D Systems, catalog #1097-EN) (human, UniProt P17813 26-586)
T3 construct: also called soluble human ENG extracellular domain
T3 sequence: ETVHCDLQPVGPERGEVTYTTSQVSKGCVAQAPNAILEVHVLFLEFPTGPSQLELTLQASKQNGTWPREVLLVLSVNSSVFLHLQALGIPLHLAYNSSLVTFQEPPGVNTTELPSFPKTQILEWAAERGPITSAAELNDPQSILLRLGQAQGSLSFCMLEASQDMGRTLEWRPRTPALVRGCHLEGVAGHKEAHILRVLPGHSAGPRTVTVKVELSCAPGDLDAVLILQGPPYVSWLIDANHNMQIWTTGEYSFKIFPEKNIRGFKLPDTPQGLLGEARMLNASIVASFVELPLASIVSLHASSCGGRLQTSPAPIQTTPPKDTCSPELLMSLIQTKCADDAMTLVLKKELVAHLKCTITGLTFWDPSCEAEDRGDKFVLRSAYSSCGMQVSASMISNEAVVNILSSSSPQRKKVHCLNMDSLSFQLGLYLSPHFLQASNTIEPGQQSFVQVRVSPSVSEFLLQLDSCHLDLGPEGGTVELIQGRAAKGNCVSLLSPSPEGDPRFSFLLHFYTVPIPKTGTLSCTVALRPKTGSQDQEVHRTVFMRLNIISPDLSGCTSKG

T4: mENG(27-581)-hFc (R&D Systems, catalog #1320-EN) (murine; human, UniProt Q63961 27-581)
T4 construct: Bought protein; not shown: Fc domain of human IgG1
T4 sequence: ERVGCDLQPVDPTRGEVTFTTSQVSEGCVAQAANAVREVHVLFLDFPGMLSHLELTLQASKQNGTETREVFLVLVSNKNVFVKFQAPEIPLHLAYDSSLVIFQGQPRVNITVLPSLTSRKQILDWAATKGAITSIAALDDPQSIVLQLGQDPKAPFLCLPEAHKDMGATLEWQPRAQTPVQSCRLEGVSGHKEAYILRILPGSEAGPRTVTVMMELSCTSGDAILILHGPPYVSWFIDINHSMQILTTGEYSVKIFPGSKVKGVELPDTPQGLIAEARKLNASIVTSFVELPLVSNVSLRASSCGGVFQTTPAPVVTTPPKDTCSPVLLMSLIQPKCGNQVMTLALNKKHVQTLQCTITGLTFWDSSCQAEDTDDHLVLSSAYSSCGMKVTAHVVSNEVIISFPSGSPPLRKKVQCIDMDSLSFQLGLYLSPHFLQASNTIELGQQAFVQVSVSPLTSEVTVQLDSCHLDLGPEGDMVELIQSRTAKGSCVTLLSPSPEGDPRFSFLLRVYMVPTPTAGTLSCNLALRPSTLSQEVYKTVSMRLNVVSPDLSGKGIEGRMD

B1: hENG(258-346)-hFc (Fc fusion)
chain: YVSWLIDANHNMQIWTTGEYSFKIFPEKNIRGFKLPDTPQGLLGEARMLNASIVASFVELPLASIVSLHASSCGGRLQTSPAPIQTTPP
notes: not shown: human IgG1 Fc domain
B2: hENG(360-437)-hFc (Fc fusion)
chain: QTKCADDAMTLVLKKELVAHLKCTITGLTFWDPSCEAEDRGDKFVLRSAYSSCGMQVSASMISNEAVVNILSSSSPQR
notes: Expressed in COS cells, not purified; not shown: human IgG1 Fc domain
B3: hENG(360-457)-hFc (Fc fusion)
chain: QTKCADDAMTLVLKKELVAHLKCTITGLTFWDPSCEAEDRGDKFVLRSAYSSCGMQVSASMISNEAVVNILSSSSPQRKKVHCLNMDSLSFQLGLYLS
notes: as for B2
B4: ALK2 (receptor, human, UniProt Q04771 21-123, looked up)
chain: MEDEKPKVNPKLYMCVCEGLSCGNEDHCEGQQCFSSLSINDGFHVYQKGCFQVYEQGKMTCKTPPSPGQAVECCQGDWCNRNITAQLPTKGKSFPGTQNFHLE
notes: Member of the printed range ALK2-ALK7; also called type I receptor ALK2
B5: ALK3 (receptor, human, UniProt P36894 24-152, looked up)
chain: QNLDSMLHGTGMKSDSDQKKSENGVTLAPEDTLPFLKCYCSGHCPDDAINNTCITNGHCFAIIEEDDQGETTLASGCMKYEGSDFQCKDSPKAQLRRTIECCRTNLCNQYLQPTLPPVVIGPFFDGSIR
notes: Member of the printed range ALK2-ALK7; also called type I receptor ALK3
B6: bone morphogenetic protein receptor II (receptor, human, UniProt Q13873 27-150, looked up)
chain: SQNQERLCAFKDPYQQDLGIGESRISHENGTILCSKGSTCYGLWEKSKGDINLVKQGCWSHIGDPQECHYEECVVTTTPPSIQNGTYRFCCCSTDLCNVNFTENFPPPDTTPLSPPHSFNRDET
notes: also called BMPRII
B7: activin receptor IIB (receptor, human, UniProt Q13705 19-134, looked up)
chain: SGRGEAETRECIYYNANWELERTNQSGLERCEGEQDKRLHCYASWRNSSGTIELVKKGCWLDDFNCYDRQECVATEENPQVYFCCCEGNFCNERFTHLPEAGGPEVTYEPPPTAPT
notes: also called ActRIIB
B8: ALK4 (receptor, human, UniProt P36896 24-126, looked up)
chain: SGPRGVQALLCACTSCLQANYTCETDGACMVSIFNLDGMEHHVRTCIPKVELVPAGKPFYCLSSEDLRNTHCCYTDYCNRIDLRVPSGHLKEPEHPSMWGPVE
notes: Member of the printed range ALK2-ALK7; also called type I receptor ALK4
B9: TGF-β receptor II (receptor, human, UniProt P37173 24-159, looked up)
chain: IPPHVQKSVNNDMIVTDNNGAVKFPQLCKFCDVRFSTCDNQKSCMSNCSITSICEKPQEVCVAVWRKNDENITLETVCHDPKLPYHDFILEDAASPKCIMKEKKKPGETFFMCSCSSDECNDNIIFSEEYNTSNPD
B10: ALK6 (receptor, human, UniProt O00238 14-126, looked up)
chain: KKEDGESTAPTPRPKVLRCKCHHHCPEDSVNNICSTDGYCFTMIEEDDSGLPVVTSGCLGLEGSDFQCRDTPIPHQRRSIECCTERNECNKDLHPTLPPLKNRDFVDGPIHHR
notes: Member of the printed range ALK2-ALK7; also called type I receptor ALK6
B11: ALK7 (receptor, human, UniProt Q8NER5 21-113, looked up)
chain: ELSPGLKCVCLLCDSSNFTCQTEGACWASVMLTNGKEQVIKSCVSLPELNAQVFCHSSNNVTKTECCFTDFCNNITLHLPTASPNAPKLGPME
notes: Member of the printed range ALK2-ALK7; also called type I receptor ALK7
B12: ALK5 (receptor, human, UniProt P36897 34-126, looked up)
chain: LQCFCHLCTKDNFTCVTDGLCFVSVTETTDKVIHNSMCIAEIDLIPRDRPFVCAPSSKTGSVTTTYCCNQDHCNKIELPTTVKSSPGLGPVEL
notes: Member of the printed range ALK2-ALK7; also called type I receptor ALK5
B13: human BMP-7 (ligand, UniProt P18075 293-431, looked up)
chain: STGSKQRSQNRSKTPKNQEALRMANVAENSSSDQRQACKKHELYVSFRDLGWQDWIIAPEGYAAYYCEGECAFPLNSYMNATNHAIVQTLVHFINPETVPKPCCAPTQLNAISVLYFDDSSNVILKKYRNMVVRACGCH
notes: also called hBMP-7
B14: human BMP-2 (ligand, UniProt P12643 283-396, looked up)
chain: QAKHKQRKRLKSSCKRHPLYVDFSDVGWNDWIVAPPGYHAFYCHGECPFPLADHLNSTNHAIVQTLVNSVNSKIPKACCVPTELSAISMLYLDENEKVVLKNYQDMVVEGCGCR
notes: also called hBMP-2
B15: hBMP-2/7 (ligand, human)
chain 1: B14 chain
chain 2: B13 chain
notes: read as the BMP-2/BMP-7 heterodimer
B16: human TGF-β2 (ligand, UniProt P61812 303-414, looked up)
chain: ALDAAYCFRNVQDNCCLRPLYIDFKRDLGWKWIHEPKGYNANFCAGACPYLWSSDTQHSRVLSLYNTINPEASASPCCVSQDLEPLTILYYIGKTPKIEQLSNMIVKSCKCS
notes: also called hTGF-β2
B17: human activin A (ligand, UniProt P08476 311-426, looked up)
chain: GLECDGKVNICCKKQFFVSFKDIGWNDWIIAPSGYHANYCEGECPSHIAGTSGSSLSFHSTVINHYRMRGHSPFANLKSCCVPTKLRPMSMLYYDDGQNIIKKDIQNMIVEECGCS
notes: also called hActivin A
B18: human TGF-β3 (ligand, UniProt P10600 301-412, looked up)
chain: ALDTNYCFRNLEENCCVRPLYIDFRQDLGWKWVHEPKGYYANFCSGPCPYLRSADTTHSTVLGLYNTLNPEASASPCCVPQDLEPLTILYYVGRTPKVEQLSNMVVKSCKCS
notes: also called hTGF-β3

The target of the first experiment is T1, human BMP-10. The experiment in a line: SPR, captured hENG-hFc, soluble ligand. A general note: Surface plasmon resonance follows binding to a sensor surface in real time, without labels.
Regarding B1, the binding result is “no binding (tested: 100 nM)”.
On the same count and under the same terms, the entry for B2 is “no binding (tested: 100 nM)”; for B3 it is “no binding (tested: 100 nM)”.

Another experiment deals with T2, human BMP-9. Description: SPR, captured hENG-hFc, soluble ligand.
Take B1: the binding result was “no binding (tested: 100 nM)”.
Still for that read-out and setting: under B2 stands “no binding (tested: 100 nM)”; under B3, “no binding (tested: 100 nM)”.

A further experiment deals with T3, hENG(26-586) (R&D Systems, catalog …). The experiment in a line: SPR.
Take B4: the binding result was “no binding”.
On the same count and under the same terms, the entry for B5 is “no binding”; for B6 it is “no binding”.
For B7, the binding result is “no binding”.
Same read-out and setting: under B8 stands “no binding”; under B9, “no binding”; under B10, “no binding”.
The same measure, in the same setting: the entry for B11 is “no binding”.
Same read-out and setting: under B12 stands “no binding”.

A further experiment shares this target. The experiment in a line: SPR (Biacore), immobilized construct, soluble ligand.
For the molecule B13, the binding result is “no binding (tested: 25 nM)”.
Same read-out and setting: the entry for B14 is “no binding (tested: 25 nM)”; for B15 it is “no binding (tested: 25 nM)”; for B16 it is “no binding (tested: 25 nM)”.
In the case of B17, the binding result is given as “no binding (tested: 25 nM)”.
Consider B18, for which the binding result is recorded as “no binding (tested: 25 nM)”.

The target in a further experiment is T4, mENG(27-581)-hFc (R&D Systems, catalog …). Description: SPR (Biacore), captured construct, soluble ligand.
Regarding B13, the binding result is listed as “no binding (tested: 25 nM)”.
Take B14: the binding result was “no binding (tested: 25 nM)”.
Same read-out and setting: under B15 stands “no binding (tested: 25 nM)”; under B16, “no binding (tested: 10 nM)”.
For the molecule B17, the binding result is on record as “no binding (tested: 25 nM)”.
Same read-out and setting: the entry for B18 is “no binding (tested: 10 nM)”.
